Data reported in PMC4562997, “Study of light-induced MscL gating by EPR spectroscopy” (European Biophysics Journal, 2015).

Key:
[1] = molecular target: the molecule itself; assay: cell-based or functional assay
[2] = molecular target: the molecule itself; assay: chromatofocussing; protein purified in LDAO, detergent exchanged to Triton X-100 by size-exclusion chromatography, then chromatofocussing; pI compared with that of the pentamer
[3] = molecular target: the molecule itself; assay: native gel or EMSA; blue native gel (8-16 % gradient); pure G22C MscL incubated 1 h at room temperature with urea, guanidinium hydrochloride or trifluoroethanol (various detergents also screened)
[4] = molecular target: the molecule itself; assay: CW-EPR, intersubunit spin-spin interaction (spectral broadening); heteropentamers with 1, 2 or 3 light switches reconstituted in asolectin liposomes, room temperature, X-band; maximally (10:1) against minimally (1:10) spin-labelled channels
[5] = molecular target: T1, G22C MscL, StrepII-tagged, labelled with the light switch at cysteine 22 (E. coli, UniProt P0A742 1-136, G22C, cysteine 22 alkylated with the light switch (iodoacetate bearing the photocleavable protecting group 6-nitroveratryl alcohol)); assay: sequential affinity chromatography (Ni-NTA, then Streptactin) + chromatofocussing; 6His-tagged and StrepII-tagged proteins purified in LDAO, mixed 1:1 (v/v), 45 min at room temperature, detergent exchanged to Triton X-100 by size exclusion; homopentamers removed on the two columns, heteropentamers separated on Mono P by pI; conditions: both partners purified
T1 construct: MscL, mechanosensitive channel of large conductance, E. coli; also called light switch-labeled-StrepII-tagged MscL; not shown: StrepII, C-terminal, kept
T1 sequence (looked up): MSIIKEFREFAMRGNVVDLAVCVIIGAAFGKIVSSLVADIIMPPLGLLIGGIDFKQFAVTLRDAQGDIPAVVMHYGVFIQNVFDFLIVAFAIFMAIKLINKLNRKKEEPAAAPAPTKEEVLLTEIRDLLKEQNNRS

B1: G22C-Strep MscL, unlabelled, after detergent exchange from LDAO to Triton X-100 (natural protein, E. coli, UniProt P0A742 1-136, looked up)
chain: MSIIKEFREFAMRGNVVDLAVCVIIGAAFGKIVSSLVADIIMPPLGLLIGGIDFKQFAVTLRDAQGDIPAVVMHYGVFIQNVFDFLIVAFAIFMAIKLINKLNRKKEEPAAAPAPTKEEVLLTEIRDLLKEQNNRS
notes: MscL, mechanosensitive channel of large conductance, E. coli
- calcein dequenching assay of MscL reconstituted into liposomes, percent release; after exchange of LDAO to Triton X-100 (same protein:lipid ratio) [1]: 85%
- stoichiometry N [2]: 5

B2: G22C MscL (mechanosensitive channel of large conductance, E. coli), pure, unlabelled, as run on the blue native gel (natural protein, UniProt P0A742 1-136, looked up)
chain: MSIIKEFREFAMRGNVVDLAVCVIIGAAFGKIVSSLVADIIMPPLGLLIGGIDFKQFAVTLRDAQGDIPAVVMHYGVFIQNVFDFLIVAFAIFMAIKLINKLNRKKEEPAAAPAPTKEEVLLTEIRDLLKEQNNRS
notes: MscL, mechanosensitive channel of large conductance, E. coli; The denaturant treatment stands in the methods right after the isolation of the 6His-tagged protein, so the 6His form is likely; source: E. coli PB104 (mscL-null), p1BAD vector, purified from membrane vesicles
- stoichiometry N [3]: 5

B3: G22C MscL, 6His-tagged, labelled with the EPR spin label at cysteine 22 (natural protein, E. coli, UniProt P0A742 1-136, looked up)
chain: MSIIKEFREFAMRGNVVDLAVCVIIGAAFGKIVSSLVADIIMPPLGLLIGGIDFKQFAVTLRDAQGDIPAVVMHYGVFIQNVFDFLIVAFAIFMAIKLINKLNRKKEEPAAAPAPTKEEVLLTEIRDLLKEQNNRS
modifications: cysteine 22 labelled with (1-oxyl-2,2,5,5-tetramethylpyrrolin-3-methyl) methanethiosulfonate spin label (maximally, 10:1, or minimally, 1:10 label:protein)
notes: MscL, mechanosensitive channel of large conductance, E. coli; also called EPR spin-labeled- His-tagged MscL; source: E. coli PB104 (mscL-null), p1BAD vector, purified in LDAO (Ni-NTA), spin-labelled in detergent solution; not shown: 6His, C-terminal, kept
- binding result [4]: binds
- binding result [5]: binds

B4: I24C MscL labelled with the EPR spin label at cysteine 24 (natural protein, E. coli, UniProt P0A742 1-136, looked up)
chain: MSIIKEFREFAMRGNVVDLAVGVCIGAAFGKIVSSLVADIIMPPLGLLIGGIDFKQFAVTLRDAQGDIPAVVMHYGVFIQNVFDFLIVAFAIFMAIKLINKLNRKKEEPAAAPAPTKEEVLLTEIRDLLKEQNNRS
modifications: cysteine 24 labelled with (1-oxyl-2,2,5,5-tetramethylpyrrolin-3-methyl) methanethiosulfonate spin label
notes: MscL, mechanosensitive channel of large conductance, E. coli; source: E. coli PB104 (mscL-null), p1BAD vector, purified, spin-labelled
- binding result [4]: binds
- binding result [5]: binds

B5: A28C MscL labelled with the EPR spin label at cysteine 28 (natural protein, E. coli, UniProt P0A742 1-136, looked up)
chain: MSIIKEFREFAMRGNVVDLAVGVIIGACFGKIVSSLVADIIMPPLGLLIGGIDFKQFAVTLRDAQGDIPAVVMHYGVFIQNVFDFLIVAFAIFMAIKLINKLNRKKEEPAAAPAPTKEEVLLTEIRDLLKEQNNRS
modifications: cysteine 28 labelled with (1-oxyl-2,2,5,5-tetramethylpyrrolin-3-methyl) methanethiosulfonate spin label
notes: as for B4
- binding result [4]: binds
- binding result [5]: binds
